First the molecules themselves.
B1: Azoarcus group I ribozyme (parent)
chain: GUGCCUUGCGCCGGGAAACCACGCAAGGGAUGGUGUCAAAUUCGGCGAAACCUAAGCGCCCGCCCGGGCGUAUGGCAACGCCGAGCCAAGCUUCGGCGCCUGCGCCGAUGAAGGUGUAGAGACUAGACGGCACCCACCUAAGGCAAACGCUAUGGUGAAGGCAUAGUCCAGGGAGUGGCGAAAGUCACACAAACCGG

Variants of B1 are the subject of this series. As to the kind of experiment: reverse-splicing fitness (ratio to wild type); higher = more active; in vitro selection; Mg2+ level not given. The method, boiled down:
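An in vitro group I ribozyme library with randomized positions was T7-transcribed and gel-purified. In triplicate, 10 pmol RNA in EPPS pH 7.5 was reacted with 50 pmoles of a 30-nt RNA substrate for 1 h at 37 °C across several added MgCl2 levels (1–48 mM), then stopped with EDTA. Products were reverse transcribed from a substrate-complementary primer, PCR-amplified and sequenced (HiSeq 4000). Fitness is a variant's read proportion after selection over that before, normalised to wild type.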
Take GUGCCUUGCGCCGGGAAACCACGCAAGGGAUGGUGUCAAAUUCGGCGAAACCUAAGCGCCCGCCCGGGCGUAUGGCAACGCGGAGCCAAGCUUCGGCGCCUGCGCCGAUGAAGGUGUAGAGACUAGACGGCACCCACCUAAGGCAAACGGUAUGGUGAAGGCAUAGUCCAGGGAGAGGCGAAAGUCACACAAACCGG [C82G C150G U176A]: the reverse-splicing fitness was 0.0255.

Turning to GUGCCUUGCGCCGGGAAACCACGCAAGGGAUGGUGUCAAAUUCGGCGAAACCUAAGCGCCCGCCCGGGCGUAUGGCAACGCGGAGCCAAGCUUCGGCGCCUGCGCCGAUGAAGGUGUAGAGACUAGACGGCACCCACCUAAGGCAAACGGUAUGGUGAAGGCAUAGUCCAGGGAGGGGCGAAAGUCACACAAACCGG [C82G C150G U176G], the reverse-splicing fitness came out at 0.00797.

As to GUGCCUUGCGCCGGGAAACCACGCAAGGGAUGGUGUCAAAUUCGGCGAAACCUAAGCGCCCGCCCGGGCGUAUGGCAACGCGGAGCCAAGCUUCGGCGCCUGCGCCGAUGAAGGUGUAGAGACUAGACGGCACCCACCUAAGGCAAACGGUAUGGUGAAGGCAUAGUCAAGGGAGCGGCGAAAGUCACACAAACCGG [C82G C150G C169A U176C], the reverse-splicing fitness is 0.00997.

With GUGCCUUGCGCCGGGAAACCACGCAAGGGAUGGUGUCAAAUUCGGCGAAACCUAAGCGCCCGCCCGGGCGUAUGGCAACGCGGAGCCAAGCUUCGGCGCCUGCGCCGAUGAAGGUGUAGAGACUAGACGGCACCCACCUAAGGCAAACGGUAUGGUGAAGGCAUAGUCAAGGGAGGGGCGAAAGUCACACAAACCGG [C82G C150G C169A U176G], the reverse-splicing fitness was found to be 0.00752.

GUGCCUUGCGCCGGGAAACCACGCAAGGGAUGGUGUCAAAUUCGGCGAAACCUAAGCGCCCGCCCGGGCGUAUGGCAACGCGGAGCCAAGCUUCGGCGCCUGCGCCGAUGAAGGUGUAGAGACUAGACGGCACCCACCUAAGGCAAACGGUAUGGUGAAGGCAUAGUCAAGGGAGAGGCGAAAGUCACACAAACCGG [C82G C150G C169A U176A]: the reverse-splicing fitness amounted to 0.0112.

As for GUGCCUUGCGCCGGGAAACCACGCAAGGGAUGGUGUCAAAUUCGGCGAAACCUAAGCGCCCGCCCGGGCGUAUGGCAACGCGGAGCCAAGCUUCGGCGCCUGCGCCGAUGAAGGUGUAGAGACUAGACGGCACCCACCUAAGGCAAACGGUAUGGUGAAGGCAUAGUCAAGGGAGUGGCGAAAGUCACACAAACCGG [C82G C150G C169A], the reverse-splicing fitness is 0.00919.

With GUGCCUUGCGCCGGGAAACCACGCAAGGGAUGGUGUCAAAUUCGGCGAAACCUAAGCGCCCGCCCGGGCGUAUGGCAACGCGGAGCCAAGCUUCGGCGCCUGCGCCGAUGAAGGUGUAGAGACUAGACGGCACCCACCUAAGGCAAACGGUAUGGUGAAGGCAUAGUCUAGGGAGUGGCGAAAGUCACACAAACCGG [C82G C150G C169U], the reverse-splicing fitness came out at 0.00971.

With GUGCCUUGCGCCGGGAAACCACGCAAGGGAUGGUGUCAAAUUCGGCGAAACCUAAGCGCCCGCCCGGGCGUAUGGCAACGCGGAGCCAAGCUUCGGCGCCUGCGCCGAUGAAGGUGUAGAGACUAGACGGCACCCACCUAAGGCAAACGGUAUGGUGAAGGCAUAGUCGAGGGAGUGGCGAAAGUCACACAAACCGG [C82G C150G C169G], the reverse-splicing fitness worked out at 0.00811.

Regarding GUGCCUUGCGCCGGGAAACCACGCAAGGGAUGGUGUCAAAUUCGGCGAAACCUAAGCGCCCGCCCGGGCGUAUGGCAACGCGGAGCCAAGCUUCGGCGCCUGCGCCGAUGAAGGUGUAGAGACUAGACGGCACCCACCUAAGGCAAACGGUAUGGUGAAGGCAUAGUCUAGGGAGGGGCGAAAGUCACACAAACCGG [C82G C150G C169U U176G], the reverse-splicing fitness was found to be 0.00593.

Turning to GUGCCUUGCGCCGGGAAACCACGCAAGGGAUGGUGUCAAAUUCGGCGAAACCUAAGCGCCCGCCCGGGCGUAUGGCAACGCGGAGCCAAGCUUCGGCGCCUGCGCCGAUGAAGGUGUAGAGACUAGACGGCACCCACCUAAGGCAAACGGUAUGGUGAAGGCAUAGUCUAGGGAGCGGCGAAAGUCACACAAACCGG [C82G C150G C169U U176C], the reverse-splicing fitness came to 0.0132.

Consider GUGCCUUGCGCCGGGAAACCACGCAAGGGAUGGUGUCAAAUUCGGCGAAACCUAAGCGCCCGCCCGGGCGUAUGGCAACGCGGAGCCAAGCUUCGGCGCCUGCGCCGAUGAAGGUGUAGAGACUAGACGGCACCCACCUAAGGCAAACGGUAUGGUGAAGGCAUAGUCUAGGGAGAGGCGAAAGUCACACAAACCGG [C82G C150G C169U U176A], for which the reverse-splicing fitness was 0.00858.

Take GUGCCUUGCGCCGGGAAACCACGCAAGGGAUGGUGUCAAAUUCGGCGAAACCUAAGCGCCCGCCCGGGCGUAUGGCAACGCGGAGCCAAGCUUCGGCGCCUGCGCCGAUGAAGGUGUAGAGACUAGACGGCACCCACCUAAGGCAAACGUUAUGGUGAAGGCAUAGUCUAGGGAGAGGCGAAAGUCACACAAACCGG [C82G C150U C169U U176A]: the reverse-splicing fitness was 0.0142.

As for GUGCCUUGCGCCGGGAAACCACGCAAGGGAUGGUGUCAAAUUCGGCGAAACCUAAGCGCCCGCCCGGGCGUAUGGCAACGCGGAGCCAAGCUUCGGCGCCUGCGCCGAUGAAGGUGUAGAGACUAGACGGCACCCACCUAAGGCAAACGUUAUGGUGAAGGCAUAGUCUAGGGAGCGGCGAAAGUCACACAAACCGG [C82G C150U C169U U176C], the reverse-splicing fitness is 0.0159.

Consider GUGCCUUGCGCCGGGAAACCACGCAAGGGAUGGUGUCAAAUUCGGCGAAACCUAAGCGCCCGCCCGGGCGUAUGGCAACGCGGAGCCAAGCUUCGGCGCCUGCGCCGAUGAAGGUGUAGAGACUAGACGGCACCCACCUAAGGCAAACGUUAUGGUGAAGGCAUAGUCUAGGGAGGGGCGAAAGUCACACAAACCGG [C82G C150U C169U U176G], for which the reverse-splicing fitness was found to be 0.00459.

As to GUGCCUUGCGCCGGGAAACCACGCAAGGGAUGGUGUCAAAUUCGGCGAAACCUAAGCGCCCGCCCGGGCGUAUGGCAACGCGGAGCCAAGCUUCGGCGCCUGCGCCGAUGAAGGUGUAGAGACUAGACGGCACCCACCUAAGGCAAACGUUAUGGUGAAGGCAUAGUCCAGGGAGAGGCGAAAGUCACACAAACCGG [C82G C150U U176A], the reverse-splicing fitness came out at 0.181.

(Values after the RNAGym collection of RNA variant scans (doi:10.1093/molbev/msab373).)
